The values below come from US20180066058A1 (published 2018).

As usually defined, the IC50 is the concentration at which inhibition is half-maximal. By Kd is commonly meant the concentration at which binding is half-saturated.

The target in experiment [1] is T1, human ICOS-mFc (Chimerigen) (human, UniProt Q9Y6W8 21-140).
T1 construct: also called human ICOS receptor; human ICOS Receptor; not shown: mouse Fc of the bought construct
T1 sequence: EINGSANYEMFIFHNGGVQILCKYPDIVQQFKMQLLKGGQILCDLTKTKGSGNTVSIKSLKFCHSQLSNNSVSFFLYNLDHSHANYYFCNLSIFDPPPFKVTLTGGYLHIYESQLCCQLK
In words: HTRF neutralisation of Alexa 647 human B7-H2 binding to human ICOS-mFc; human IgG4.PE table; n = 1. The procedure:
(§1) 5 μl of ICOS receptor (human ICOS-mFc, 20 nM, 5 nM final or mouse ICOS-mFc 4 nM, 1 nM final (Chimerigen)) was added to required wells. Plate was incubated for 1 hr at room temperature (RT).
(§2) Finally, 5 μl of anti-mouse IgG donor mAb (Southern Biotech) labelled with europium cryptate (Cis Bio), 40 nM, 10 nM final was added to each well and the assay was left in the dark at RT to incubate for a further 2 hours. After incubation, assay was read on Envision plate reader (Perkin Elmer) using a standard HTRF protocol. […] Titration curves and IC50 values [M] were plotted using Graphpad (Prism). IC50 values were calculated by first transforming the data using equation X=Log(X). The transformed data was then fitted using nonlinear regression, using fitting algorithm, log (inhibitor) vs. response—variable slope (four parameters).
A general note: In TR-FRET formats the signal depends on donor and acceptor labels being close together.

The target of experiment [2] is T2, Human ICOS extracellular domain fused to human Fc (human, UniProt Q9Y6W8 21-140).
T2 construct: Dimeric protein made in house from NCBI NP_036224.1; also called hICOS; hICOS Fc; not shown: human Fc region
T2 sequence: T1 sequence
In words: SPR (ProteOn XPR36), Fc-tagged ICOS captured on anti-human IgG, Fab analyte, 25 C. The procedure: Fab affinities of the ICOS leads were generated by SPR using the ProteOn XPR3 6 (BioRad). An anti-human IgG capture surface was created on a GLC biosensor chip by primary amine coupling, immobilising three anti-human IgG antibodies (Jackson Labs 109-005-008, 109-006-008 and 309-006-008). […] Binding sensorgrams were double referenced using a buffer injection (i.e. 0 nM), and the data was fitted to the 1:1 model inherent to the ProteOn XPR36 analysis software. The assay was run at 25° C. and using HBS-EP as running buffer.

Experiment [3] addresses T2, Human ICOS extracellular domain fused …. In words: SPR (ProteOn XPR36), human ICOS ECD-Fc captured, Fab analyte, pH 5.5, 37 C; poor fit to 1:1 model. The procedure: (§3) In addition, a comparison was performed of antibody:antigen binding affinity at different pH values. As before, the dimeric human ICOS protein, presented as the extracellular domain of ICOS fused to a human Fc region, was captured on the anti-human Fc capture surface created using the 3 antibody cocktail, immobilised on the GLC biosensor chip by primary amine coupling. SPR analysis of recombinantly expressed anti-ICOS Fabs was carried out on the ProteOn XPR36 Array system (Biorad). The Fab fragments were used as analyte to generate binding sensorgrams, which were double referenced with a buffer injection (i.e., 0 nM). The subsequent referenced sensorgrams were fitted to the 1:1 model inherent to the ProteOn analysis software. […] Data were fitted to the 1:1 model.

The target is the same in experiment [4]. In words: SPR (ProteOn XPR36), human ICOS ECD-Fc captured, Fab analyte, pH 7.4, 37 C; poor fit to 1:1 model. The procedure:
as §3

Experiment [5] addresses T1, human ICOS-mFc (Chimerigen). In words: HTRF neutralisation of Alexa 647 human B7-H2 binding to human ICOS-mFc; human IgG4.PE; mean, n = 3. On the procedure:
as §1, §2

For experiment [6], the target named is T3, mouse ICOS-mFc (Chimerigen) (mouse, UniProt Q9WVS0 21-141, limits assumed).
T3 construct: also called mouse ICOS receptor; mouse ICOS Receptor; not shown: mouse Fc of the bought construct
T3 sequence: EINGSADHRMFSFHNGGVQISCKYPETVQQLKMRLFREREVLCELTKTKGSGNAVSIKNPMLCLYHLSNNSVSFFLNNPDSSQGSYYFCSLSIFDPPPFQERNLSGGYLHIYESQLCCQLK
In words: HTRF neutralisation of Alexa 647 mouse B7-H2 binding to mouse ICOS-mFc; human IgG4.PE; mean, n = 3. On the procedure:
as §1, §2

B1: STIM006 human IgG4.PE (antibody, V domains shown)
VH: QVQLVESGGGLVKPGGSLRLSCAASGFTFSDYFMSWIRQAPGKGLEWISYISSSGSTIYYADSVRGRFTISRDNAKYSLYLQMNSLRSEDTAVYYCARDHYDGSGIYPLYYYYGLDVWGQGTTVTVSS
VL: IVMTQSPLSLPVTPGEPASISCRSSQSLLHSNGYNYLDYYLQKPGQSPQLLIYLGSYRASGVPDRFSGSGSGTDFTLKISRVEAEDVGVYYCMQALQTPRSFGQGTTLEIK
For the molecule B1, the IC50 in experiment [1] worked out at 0.8 nM.

B2: STIM002 Fab (Fab, V domains shown)
VH: QVQLVQSGGEVKKPGASVKVSCKASGYTFTSYGFSWVRQAPGQGLEWMGWISAYNGNTNYAQKLQGRVTMTTDTSTSTAYMELRSLRSDDTAVYYCARSTYFYGSGTLYGMDVWGQGTTVTVSS
VL: DIVMTQSPLSLPVTPGEPASISCRSSQSLLHSDGYNYLDWYLQKPGQSPQLLIYLGSTRASGFPDRFSGSGSGTDFTLKISRVEAEDVGVYYCMQALQTPLSFGQGTKLEIK
notes: Recombinantly expressed purified Fab
Take B2: the dissociation constant (Kd) in experiment [2] came out at 1070 nM; in experiment [3], 4.17 nM; in experiment [4], 223 nM.

B3: STIM004 human IgG4.PE (antibody, V domains shown)
VH: EVQLVESGGGVVRPGGSLRLSCAASGLTFDDYGMSWVRQVPGKGLEWVSGINWNGDNTDYADSVKGRFTISRDNAKNSLYLQMNSLRAEDTALYYCARDYYGSGSYYNVPFDYWGQGTLVTVSS
VL: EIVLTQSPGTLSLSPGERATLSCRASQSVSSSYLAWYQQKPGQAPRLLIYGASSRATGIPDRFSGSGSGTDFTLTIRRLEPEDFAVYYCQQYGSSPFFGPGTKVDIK
notes: Human IgG4.PE (null-effector) format
Regarding B3, the IC50 in experiment [5] was determined as 161 nM; in experiment [6], 30 nM.
